Assay results from patent US20240132578A1.

Tests used:
[1] = biological target: HIV-1 92RW020 Env (HIV-1); assay: cell-based or functional assay
[2] = biological target: HIV-1 Env of isolate MGRM-AE-004 (pseudovirus) (HIV-1); assay: cell-based or functional assay
[3] = biological target: HIV-1 Env of isolate MGRM-AE-005 (pseudovirus) (HIV-1); assay: cell-based or functional assay
[4] = biological target: HIV-1 Env of isolate MGRM-AE-006 (pseudovirus) (HIV-1); assay: cell-based or functional assay
[5] = biological target: HIV-1 JR-CSF Env T394A (HIV-1 (isolate JR-CSF)) (UniProt P20871); assay: cell-based or functional assay
HIV-1 NL43 Env (HIV-1) = assay: cell-based or functional assay
[6] = biological target: HIV-1 envelope glycoprotein (Env) of isolate CAAN.A2, on pseudovirus (HIV-1); assay: cell-based or functional assay
[7] = biological target: JR-FL gp120 ΔV1/ΔV2 (HIV-1 JR-FL); assay: ELISA, antigen-coated wells, mAb titrated; EC50 by nonlinear regression
[8] = biological target: WT JR-FL gp120 (HIV-1 JR-FL); assay: as above
[9] = biological target: HIV-1 Env of isolate 92UG031 (pseudovirus) (HIV-1); assay: cell-based or functional assay
[10] = biological target: HIV-1 Env of isolate 92UG037 (pseudovirus) (HIV-1); assay: cell-based or functional assay
[11] = biological target: HIV-1 Env of isolate 92WR020 (pseudovirus) (HIV-1); assay: cell-based or functional assay
[12] = biological target: HIV-1 Env of isolate 92WR021 (pseudovirus) (HIV-1); assay: cell-based or functional assay
[13] = biological target: HIV-1 Env of isolate 92WR024 (pseudovirus) (HIV-1); assay: cell-based or functional assay
[14] = biological target: HIV-1 Env of isolate 93IN905 (HIV-1); assay: cell-based or functional assay
[15] = biological target: HIV-1 Env of isolate 93MW959 (HIV-1); assay: cell-based or functional assay
[16] = biological target: HIV-1 Env of isolate 93UG077 (pseudovirus) (HIV-1); assay: cell-based or functional assay
[17] = biological target: HIV-1 Env of isolate 93WR029 (pseudovirus) (HIV-1); assay: cell-based or functional assay
[18] = biological target: HIV-1 Env of isolate 94UG103 (pseudovirus) (HIV-1); assay: cell-based or functional assay
[19] = biological target: HIV-1 Env of isolate 97ZA012 (HIV-1); assay: cell-based or functional assay
[20] = biological target: HIV-1 Env of isolate 98IN022 (HIV-1); assay: cell-based or functional assay
[21] = biological target: HIV-1 Env of isolate JRCSF (HIV-1) (UniProt P20871); assay: cell-based or functional assay
[22] = biological target: HIV-1 Env of isolate MGRM-AE-001 (subtype AE) (HIV-1); assay: cell-based or functional assay
[23] = biological target: HIV-1 Env of isolate MGRM-Chronic-B-010 (HIV-1); assay: cell-based or functional assay
[24] = biological target: HIV-1 Env of isolate MGRM-Chronic-B-011 (HIV-1); assay: cell-based or functional assay
[25] = biological target: HIV-1 Env of isolate MGRM-Chronic-B-012 (HIV-1); assay: cell-based or functional assay
[26] = biological target: HIV-1 Env of isolate MGRM-Chronic-B-017 (HIV-1); assay: cell-based or functional assay
[27] = biological target: HIV-1 Env of isolate MGRM-Chronic-B-018 (HIV-1); assay: cell-based or functional assay
[28] = biological target: HIV-1 Env of isolate MGRM-Chronic-B-020 (HIV-1); assay: cell-based or functional assay
[29] = biological target: HIV-1 Env of isolate MGRM-Chronic-B-023 (HIV-1); assay: cell-based or functional assay
[30] = biological target: HIV-1 Env of isolate MGRM-Chronic-B-024 (HIV-1); assay: cell-based or functional assay
[31] = biological target: HIV-1 Env of isolate MGRM-D-001 (pseudovirus) (HIV-1); assay: cell-based or functional assay
[32] = biological target: HIV-1 Env of isolate MGRM-F1-018 (HIV-1); assay: cell-based or functional assay
[33] = biological target: HIV-1 Env of isolate NL43 (HIV-1); assay: cell-based or functional assay
[34] = biological target: HIV-1 Env of isolate PVO.4 (HIV-1); assay: cell-based or functional assay
[35] = biological target: HIV-1 Env of isolate QH0692.42 (HIV-1); assay: cell-based or functional assay
[36] = biological target: HIV-1 Env of isolate SC422661.8 (HIV-1); assay: cell-based or functional assay
[37] = biological target: HIV-1 Env of isolate SF162 (HIV-1) (UniProt P19550); assay: cell-based or functional assay
[38] = biological target: HIV-1 Env of isolate THR0.18 (HIV-1); assay: cell-based or functional assay
[39] = biological target: HIV-1 Env of isolate TRJ04551.58 (HIV-1); assay: cell-based or functional assay
[40] = biological target: HIV-1 Env of isolate TRO.11 (HIV-1); assay: cell-based or functional assay
[41] = biological target: HIV-1 Env of isolate VLGCB3 (HIV-1); assay: cell-based or functional assay
[42] = biological target: HIV-1 Env of pseudovirus isolate MGRM-C-006 (clade C) (HIV-1); assay: cell-based or functional assay
[43] = biological target: HIV-1 Env of pseudovirus isolate MGRM-C-024 (clade C) (HIV-1); assay: cell-based or functional assay
[44] = biological target: HIV-1 Env of pseudovirus isolate MGRM-C-027 (clade C) (HIV-1); assay: cell-based or functional assay

5141_B17 (PGT-126) (antibody)
IC50, pseudovirus neutralization [1]: 0.0046 µg/mL | IC50 (µg/mL), pseudovirus neutralization [2]: > 50 µg/mL | IC50 (µg/mL), pseudovirus neutralization [3]: 0.324 µg/mL | IC50 (µg/mL), pseudovirus neutralization [4]: 17.3 µg/mL | Fold IC50 increase relative to wild-type (pseudovirus neutralization) [5]: 0.6 fold | IC50, pseudovirus neutralization (HIV-1 NL43 Env (HIV-1)): > 10 µg/mL | IC50, pseudovirus neutralization [6]: 0.273 µg/mL | EC50 [7]: 0.3 µg/mL | EC50 [8]: 0.1 µg/mL

5329_C19 (PGT-136) (antibody)
IC50, pseudovirus neutralization [1]: 0.738 µg/mL | IC50 (µg/mL), pseudovirus neutralization [9]: > 50 µg/mL | IC50 (µg/mL), pseudovirus neutralization [10]: > 50 µg/mL | IC50 (µg/mL), pseudovirus neutralization [11]: 2.33 µg/mL | IC50 (µg/mL), pseudovirus neutralization [12]: > 50 µg/mL | IC50 (µg/mL), pseudovirus neutralization [13]: > 50 µg/mL | IC50 (µg/mL), pseudovirus neutralization [14]: 0.011 µg/mL | IC50 (µg/mL), pseudovirus neutralization [15]: > 50 µg/mL | IC50 (µg/mL), pseudovirus neutralization [16]: > 50 µg/mL | IC50 (µg/mL), pseudovirus neutralization [17]: > 50 µg/mL | IC50 (µg/mL), pseudovirus neutralization [18]: > 50 µg/mL | IC50 (µg/mL), pseudovirus neutralization [19]: > 50 µg/mL | IC50 (µg/mL), pseudovirus neutralization [20]: 13.6 µg/mL | IC50 (µg/mL), pseudovirus neutralization [21]: > 50 µg/mL | IC50, pseudovirus neutralization [22]: > 50 µg/mL | IC50 (µg/mL), pseudovirus neutralization [23]: > 50 µg/mL | IC50 (µg/mL), pseudovirus neutralization [24]: > 50 µg/mL | IC50 (µg/mL), pseudovirus neutralization [25]: 43.1 µg/mL | IC50 (µg/mL), pseudovirus neutralization [26]: > 50 µg/mL | IC50 (µg/mL), pseudovirus neutralization [27]: > 50 µg/mL | IC50 (µg/mL), pseudovirus neutralization [28]: > 50 µg/mL | IC50 (µg/mL), pseudovirus neutralization [29]: > 50 µg/mL | IC50 (µg/mL), pseudovirus neutralization [30]: > 50 µg/mL | IC50 (µg/mL), pseudovirus neutralization [31]: > 50 µg/mL | IC50 (µg/mL), pseudovirus neutralization [32]: > 50 µg/mL | IC50 (µg/mL), pseudovirus neutralization [33]: 27.7 µg/mL | IC50 (µg/mL), pseudovirus neutralization [34]: > 50 µg/mL | IC50 (µg/mL), pseudovirus neutralization [35]: > 50 µg/mL | IC50 (µg/mL), pseudovirus neutralization [36]: > 50 µg/mL | IC50 (µg/mL), pseudovirus neutralization [37]: 0.482 µg/mL | IC50 (µg/mL), pseudovirus neutralization [38]: > 50 µg/mL | IC50 (µg/mL), pseudovirus neutralization [39]: > 50 µg/mL | IC50 (µg/mL), pseudovirus neutralization [40]: 0.073 µg/mL | IC50 (µg/mL), pseudovirus neutralization [41]: > 50 µg/mL | IC50, pseudovirus neutralization [42]: > 50 µg/mL | IC50, pseudovirus neutralization [43]: > 50 µg/mL | IC50, pseudovirus neutralization [44]: > 50 µg/mL | EC50 [7]: 0.3 µg/mL | EC50 [8]: 0.2 µg/mL

5345_I01 (PGT-137) (antibody)
IC50 (µg/mL), pseudovirus neutralization [9]: > 50 µg/mL | IC50 (µg/mL), pseudovirus neutralization [10]: > 50 µg/mL | IC50 (µg/mL), pseudovirus neutralization [11]: 0.005 µg/mL | IC50 (µg/mL), pseudovirus neutralization [12]: 3.52 µg/mL | IC50 (µg/mL), pseudovirus neutralization [13]: > 50 µg/mL | IC50 (µg/mL), pseudovirus neutralization [14]: 0.042 µg/mL | IC50 (µg/mL), pseudovirus neutralization [15]: > 50 µg/mL | IC50 (µg/mL), pseudovirus neutralization [16]: > 50 µg/mL | IC50 (µg/mL), pseudovirus neutralization [17]: > 50 µg/mL | IC50 (µg/mL), pseudovirus neutralization [18]: > 50 µg/mL | IC50 (µg/mL), pseudovirus neutralization [19]: > 50 µg/mL | IC50 (µg/mL), pseudovirus neutralization [20]: 0.408 µg/mL | IC50 (µg/mL), pseudovirus neutralization [21]: > 50 µg/mL | IC50, pseudovirus neutralization [22]: > 50 µg/mL | IC50 (µg/mL), pseudovirus neutralization [23]: > 50 µg/mL | IC50 (µg/mL), pseudovirus neutralization [24]: > 50 µg/mL | IC50 (µg/mL), pseudovirus neutralization [25]: > 50 µg/mL | IC50 (µg/mL), pseudovirus neutralization [26]: > 50 µg/mL | IC50 (µg/mL), pseudovirus neutralization [27]: > 50 µg/mL | IC50 (µg/mL), pseudovirus neutralization [28]: 32.9 µg/mL | IC50 (µg/mL), pseudovirus neutralization [29]: > 50 µg/mL | IC50 (µg/mL), pseudovirus neutralization [30]: > 50 µg/mL | IC50 (µg/mL), pseudovirus neutralization [31]: > 50 µg/mL | IC50 (µg/mL), pseudovirus neutralization [32]: > 50 µg/mL | IC50 (µg/mL), pseudovirus neutralization [33]: 17.4 µg/mL | IC50 (µg/mL), pseudovirus neutralization [35]: > 50 µg/mL | IC50 (µg/mL), pseudovirus neutralization [36]: > 50 µg/mL | IC50 (µg/mL), pseudovirus neutralization [37]: 3.41 µg/mL | IC50 (µg/mL), pseudovirus neutralization [38]: > 50 µg/mL | IC50 (µg/mL), pseudovirus neutralization [39]: > 50 µg/mL | IC50 (µg/mL), pseudovirus neutralization [40]: 9.35 µg/mL | IC50 (µg/mL), pseudovirus neutralization [41]: 3.36 µg/mL | IC50, pseudovirus neutralization [42]: > 50 µg/mL | IC50, pseudovirus neutralization [43]: > 50 µg/mL | IC50, pseudovirus neutralization [44]: > 50 µg/mL | EC50 [7]: 0.2 µg/mL | EC50 [8]: 0.1 µg/mL
